# Several values for one entry are separate records, joined by “and”; a condition that tells them apart may be missing. Identical values can stand only once.
# Key:
# Mcl-1 [1] = target: Mcl-1 (UniProt Q07820); experiment: peptide SPOT array, c-Myc-tagged receptor at 1 uM or 100 nM, anti-c-Myc-Cy3
# Target sequence in this assay (Q07820 172-327): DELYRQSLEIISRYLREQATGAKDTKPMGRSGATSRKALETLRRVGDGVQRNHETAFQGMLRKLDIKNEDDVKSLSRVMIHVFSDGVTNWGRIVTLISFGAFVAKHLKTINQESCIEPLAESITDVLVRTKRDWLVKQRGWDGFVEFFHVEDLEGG
# Bcl-xL = Bcl-xL (UniProt Q07817); experiment: as above
# [2] = target: PXT1 BH3-like peptide (human); experiment: fluorescence polarisation; direct binding: 10 nM FAM-labeled peptide, receptor serially diluted; 25°C; 20 mM NaPO4, 50 mM NaCl, 1 mM EDTA, 0.001% Triton X, pH 7.8; single-site binding model
# Bfl-1 [3] = target: Bfl-1 (UniProt Q16548); experiment: peptide SPOT array, c-Myc-tagged receptor at 1 uM or 100 nM, anti-c-Myc-Cy3
# Target sequence in this assay (Q16548 1-151): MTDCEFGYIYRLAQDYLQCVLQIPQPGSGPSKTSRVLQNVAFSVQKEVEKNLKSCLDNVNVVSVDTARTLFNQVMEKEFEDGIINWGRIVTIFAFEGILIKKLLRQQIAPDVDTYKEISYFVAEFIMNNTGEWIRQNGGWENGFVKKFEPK
# Bcl-w = Bcl-w (UniProt Q92843); experiment: as above
# Chain of Bcl-w (Q92843 1-164 Q133R): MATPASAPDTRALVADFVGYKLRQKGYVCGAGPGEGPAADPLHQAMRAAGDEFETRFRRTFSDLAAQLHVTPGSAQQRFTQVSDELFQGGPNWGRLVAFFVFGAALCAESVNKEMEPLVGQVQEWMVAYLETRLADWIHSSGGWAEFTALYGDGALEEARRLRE
# Bcl-2 [4] = target: Bcl-2 (UniProt P10415); experiment: as above
# Target sequence in this assay (P10415 1-217): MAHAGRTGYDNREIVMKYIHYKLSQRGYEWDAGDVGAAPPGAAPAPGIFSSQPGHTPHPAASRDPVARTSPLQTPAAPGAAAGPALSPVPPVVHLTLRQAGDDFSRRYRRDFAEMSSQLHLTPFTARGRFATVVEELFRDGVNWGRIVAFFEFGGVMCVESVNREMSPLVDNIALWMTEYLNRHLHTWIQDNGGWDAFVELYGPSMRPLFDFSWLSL
# Mcl-1 [5] = target: Mcl-1 (UniProt Q07820); conditions: cited from earlier work
# Target sequence in this assay (Q07820 whole entry): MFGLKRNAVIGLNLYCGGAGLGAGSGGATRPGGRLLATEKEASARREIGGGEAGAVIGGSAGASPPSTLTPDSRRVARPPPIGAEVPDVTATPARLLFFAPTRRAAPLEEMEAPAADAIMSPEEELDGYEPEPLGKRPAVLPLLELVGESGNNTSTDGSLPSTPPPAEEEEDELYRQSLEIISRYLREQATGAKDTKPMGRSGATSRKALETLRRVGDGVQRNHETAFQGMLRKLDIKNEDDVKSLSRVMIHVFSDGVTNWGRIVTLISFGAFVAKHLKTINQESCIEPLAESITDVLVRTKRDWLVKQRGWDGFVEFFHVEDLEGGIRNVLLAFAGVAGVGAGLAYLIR
# Bfl-1 [6] = target: Bfl-1 (UniProt Q16548); conditions: cited from earlier work
# Target sequence in this assay (Q16548 whole entry): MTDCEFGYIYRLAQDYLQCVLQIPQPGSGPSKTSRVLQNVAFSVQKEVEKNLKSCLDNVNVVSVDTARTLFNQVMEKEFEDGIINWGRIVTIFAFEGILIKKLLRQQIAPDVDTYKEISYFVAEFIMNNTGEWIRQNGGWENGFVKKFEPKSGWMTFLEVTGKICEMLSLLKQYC
# [7] = target: peptide based on the putative BH3 motif in Aven (human); experiment: peptide or protein array; peptide SPOT arrays on nitrocellulose membranes; 1 µM or 100 nM c-Myc-tagged receptor in TBS (50 mM Tris, pH 8.1, 100 mM NaCl, 0.01% Triton X-100), 1 h, room temperature; detected with anti-c-myc-Cy3; signal given as percent of the Bim BH3 signal
# Bcl-2 [8] = target: Bcl-2 (UniProt P10415); experiment: fluorescence polarisation; binding assay in solution; direct or competition not told for this peptide (MRPL41 was unlabeled in Figure S2)
# Target sequence in this assay (P10415 whole entry): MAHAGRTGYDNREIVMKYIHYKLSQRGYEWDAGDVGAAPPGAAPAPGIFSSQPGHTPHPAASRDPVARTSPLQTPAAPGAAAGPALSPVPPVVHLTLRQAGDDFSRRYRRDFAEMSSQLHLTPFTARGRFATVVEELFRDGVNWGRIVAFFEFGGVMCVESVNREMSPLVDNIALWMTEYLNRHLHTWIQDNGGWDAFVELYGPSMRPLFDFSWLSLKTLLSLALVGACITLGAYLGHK
# Chain of Bcl-xL (UniProt Q07817) (Q07817 1-209): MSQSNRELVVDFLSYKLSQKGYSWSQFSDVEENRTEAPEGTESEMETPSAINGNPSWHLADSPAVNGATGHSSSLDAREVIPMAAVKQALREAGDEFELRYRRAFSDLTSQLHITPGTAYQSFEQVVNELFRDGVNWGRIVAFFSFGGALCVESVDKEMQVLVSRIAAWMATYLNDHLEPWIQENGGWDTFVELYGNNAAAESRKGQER
# Chain of BCL2L15 (chain, as listed by the source): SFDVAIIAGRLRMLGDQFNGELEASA
# Chain of TSC2 (chain, as listed by the source): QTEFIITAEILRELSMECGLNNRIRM
# Chain of Bad BH3 peptide BH3 (Q92934 103-127): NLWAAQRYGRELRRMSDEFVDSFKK
# Chain of ATP2B1 (chain, as listed by the source): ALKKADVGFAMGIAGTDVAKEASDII
# Chain of PSMB1 (chain, as listed by the source): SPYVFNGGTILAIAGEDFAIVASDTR
# Chain of Bcl-xL (from UniProt Q07817-1 1-233) (natural protein) (Q07817 whole entry): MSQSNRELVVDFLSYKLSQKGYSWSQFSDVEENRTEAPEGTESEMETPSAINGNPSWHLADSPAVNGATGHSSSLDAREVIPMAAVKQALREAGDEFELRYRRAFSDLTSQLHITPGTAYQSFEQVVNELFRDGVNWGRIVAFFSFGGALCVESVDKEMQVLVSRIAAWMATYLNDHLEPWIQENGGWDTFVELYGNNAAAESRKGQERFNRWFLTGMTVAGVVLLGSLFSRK
# Chain of GRIN3A (chain, as listed by the source): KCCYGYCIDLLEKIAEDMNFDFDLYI
# Chain of GRIN2D (chain, as listed by the source): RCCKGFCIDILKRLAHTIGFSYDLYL
# Chain of ARPC5L (chain, as listed by the source): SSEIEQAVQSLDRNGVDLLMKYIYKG
# Chain of PACSIN2 (chain, as listed by the source): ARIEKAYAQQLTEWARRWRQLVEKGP
# Chain of EHMT1 (chain, as listed by the source): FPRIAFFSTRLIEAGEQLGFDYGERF
# Chain of C7orf16 (chain, as listed by the source): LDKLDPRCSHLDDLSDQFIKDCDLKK
# Chain of Mcl-1 (from UniProt Q07820 1-350) (natural protein) (Q07820 whole entry): as the sequence (Q07820 whole entry) above
# Chain of Bcl-2 (from UniProt P10415 1-239) (natural protein) (P10415 whole entry): as the sequence (P10415 whole entry) above
# Chain of EIF2C3 (chain, as listed by the source): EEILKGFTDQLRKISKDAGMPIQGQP
# Chain of MYO3A (chain, as listed by the source): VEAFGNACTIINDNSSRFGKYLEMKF
# Chain of EIF2C1 (chain, as listed by the source): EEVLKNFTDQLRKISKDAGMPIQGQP
substance,measurement,setting,value
PSMB1,SPOT signal as a fraction of Bim BH3's signal on the same receptor and array,Mcl-1 [1],0.02
same,SPOT signal as a fraction of Bim BH3's signal on the same receptor and array,Bcl-xL,0.02
Mcl-1 (from UniProt Q07820 1-350) (natural protein),Kd,[2],< 30 nM
MYO3A,SPOT signal as a fraction of Bim BH3's signal on the same receptor and array,Mcl-1 [1],0.13
SYN1,SPOT signal as a fraction of Bim BH3's signal on the same receptor and array,Mcl-1 [1],0.03 and 0.04
same,SPOT signal as a fraction of Bim BH3's signal on the same receptor and array,Bfl-1 [3],0.04
same,SPOT signal as a fraction of Bim BH3's signal on the same receptor and array,Bcl-xL,0.1
EHMT1,SPOT signal as a fraction of Bim BH3's signal on the same receptor and array,Bcl-xL,0.04
TSC2,SPOT signal as a fraction of Bim BH3's signal on the same receptor and array,Mcl-1 [1],0.06
same,SPOT signal as a fraction of Bim BH3's signal on the same receptor and array,Bcl-w,0.03
same,SPOT signal as a fraction of Bim BH3's signal on the same receptor and array,Bcl-2 [4],0.01
same,SPOT signal as a fraction of Bim BH3's signal on the same receptor and array,Bfl-1 [3],0.03
same,SPOT signal as a fraction of Bim BH3's signal on the same receptor and array,Bcl-xL,0.15
C9orf84,SPOT signal as a fraction of Bim BH3's signal on the same receptor and array,Mcl-1 [1],0.02
VPS29,SPOT signal as a fraction of Bim BH3's signal on the same receptor and array,Mcl-1 [1],0.02
same,SPOT signal as a fraction of Bim BH3's signal on the same receptor and array,Bcl-xL,0.02 and 0.01
HRK,SPOT signal as a fraction of Bim BH3's signal on the same receptor and array,Bfl-1 [3],0.23 and 0.32
same,SPOT signal as a fraction of Bim BH3's signal on the same receptor and array,Bcl-xL,0.56 and 0.38
ARPC5L,SPOT signal as a fraction of Bim BH3's signal on the same receptor and array,Bcl-xL,0.03
RPL29,SPOT signal as a fraction of Bim BH3's signal on the same receptor and array,Bcl-xL,0.72 and 0.7
Bad BH3 peptide BH3 (from UniProt Q92934),Kd,Mcl-1 [5],> 2500 nM
same,Kd,Bfl-1 [6],> 2500 nM
Bcl-xL (from UniProt Q07817-1 1-233) (natural protein),Kd,[2],< 30 nM
same,percent of the Bim BH3 SPOT signal,[7],11%
CYP2A13,SPOT signal as a fraction of Bim BH3's signal on the same receptor and array,Mcl-1 [1],0.04 and 0.05
same,SPOT signal as a fraction of Bim BH3's signal on the same receptor and array,Bfl-1 [3],0.04
same,SPOT signal as a fraction of Bim BH3's signal on the same receptor and array,Bcl-xL,0.06 and 0.07
EIF2C1,SPOT signal as a fraction of Bim BH3's signal on the same receptor and array,Bcl-xL,0.02
ARPC5,SPOT signal as a fraction of Bim BH3's signal on the same receptor and array,Bcl-xL,0.03
GRIN3A,SPOT signal as a fraction of Bim BH3's signal on the same receptor and array,Mcl-1 [1],0.03
CHAF1B,SPOT signal as a fraction of Bim BH3's signal on the same receptor and array,Mcl-1 [1],0.02
same,SPOT signal as a fraction of Bim BH3's signal on the same receptor and array,Bcl-xL,0.02
EIF2C3,SPOT signal as a fraction of Bim BH3's signal on the same receptor and array,Bcl-xL,0.03
KIF5C,SPOT signal as a fraction of Bim BH3's signal on the same receptor and array,Mcl-1 [1],0.07 and 0.16
TRIO,SPOT signal as a fraction of Bim BH3's signal on the same receptor and array,Mcl-1 [1],0.04
same,SPOT signal as a fraction of Bim BH3's signal on the same receptor and array,Bfl-1 [3],0.04 and 0.05
same,SPOT signal as a fraction of Bim BH3's signal on the same receptor and array,Bcl-xL,0.06
MRPL41 BH3-like peptide,Kd,Bcl-2 [8],190 nM
TAF6,SPOT signal as a fraction of Bim BH3's signal on the same receptor and array,Mcl-1 [1],0.03
PACSIN2,SPOT signal as a fraction of Bim BH3's signal on the same receptor and array,Bcl-xL,0.24
BCL2L15,SPOT signal as a fraction of Bim BH3's signal on the same receptor and array,Bcl-w,0.58
same,SPOT signal as a fraction of Bim BH3's signal on the same receptor and array,Bcl-2 [4],0.75
same,SPOT signal as a fraction of Bim BH3's signal on the same receptor and array,Bfl-1 [3],0.52
Bcl-2 (from UniProt P10415 1-239) (natural protein),Kd,[2],< 30 nM
ATP2B1,SPOT signal as a fraction of Bim BH3's signal on the same receptor and array,Mcl-1 [1],0.01
same,SPOT signal as a fraction of Bim BH3's signal on the same receptor and array,Bcl-xL,0.02
GRIN2D,SPOT signal as a fraction of Bim BH3's signal on the same receptor and array,Mcl-1 [1],0.06
C7orf16,SPOT signal as a fraction of Bim BH3's signal on the same receptor and array,Bcl-xL,0.02

# — publication PMC4072508, “Genome-Wide Prediction and Validation of Peptides That Bind Human Prosurvival Bcl-2 Proteins” (PLoS Computational Biology, 2014)
